The text below walks through data of publication PMC12456131.

Common to all, as to test: co-IP (IP: Strep, western blot bands quantified with ImageJ)
The target of test [1] is GP4 of PRRSV HuN4-F112, Strep-tagged (pCAGGS-GP4-Strep). To be noted: plasmids cotransfected into HEK-293T cells; parent: est. 0.86; read off a plot.
Test [2] deals with CD163 receptor, HA-tagged (pCAGGS-CD163-HA) (UniProt Q2VL90). Conditions: plasmids cotransfected into HEK-293T cells, read off a plot.
Test [3] concerns the target GP2a of PRRSV HuN4-F112, Strep-tagged (pCAGGS-GP2a-Strep). Conditions: chain shown with the change; plasmids cotransfected into HEK-293T cells; parent: est. 2.9; read off a plot.

Consider “CD163 receptor, HA-tagged (pCAGGS-CD163-HA) (from UniProt Q2VL90) R561A”, for which the response (relative ratio of CD163/GP4) in test [1] is 0.64.

With “CD163 receptor, HA-tagged (pCAGGS-CD163-HA) (from UniProt Q2VL90) R561del”, the response (relative ratio of CD163/GP4) in test [1] worked out at 0.27.

As for “GP2a of PRRSV HuN4-F112, Strep-tagged (pCAGGS-GP2a-Strep) V118I”, the response (relative ratio of CD163/GP2) in test [2] (parent: est. 0.18) came out at 0.67.

“GP2a of PRRSV HuN4-F112, Strep-tagged (pCAGGS-GP2a-Strep) V118del”: the response (relative ratio of CD163/GP2) in test [2] (parent: est. 0.61) is 0.23.

As for “GP4 of PRRSV HuN4-F112, Strep-tagged (pCAGGS-GP4-Strep) N43D”, the response (relative ratio of CD163/GP4) in test [2] (parent: est. 0.74) worked out at 1.4.

Consider “GP4 of PRRSV HuN4-F112, Strep-tagged (pCAGGS-GP4-Strep) N43del”, for which the response (relative ratio of CD163/GP4) in test [2] (parent: est. 1.2) was 0.57.

B1: CD163 receptor, HA-tagged (pCAGGS-CD163-HA), Q2VL90 R561A (protein)
chain: KDKELRLTGGENKCSGRVEVKVQEEWGTVCNNGWDMDVVSVVCRQLGCPTAIKATGWANFSAGSGRIWMDHVSCRGNESALWDCKHDGWGKHNCTHQQDAGVTCSDGSDLEMGLVNGGNRCLGRIEVKFQGRWGTVCDDNFNINHASVVCKQLECGSAVSFSGSANFGEGSGPIWFDDLVCNGNESALWNCKHEGWGKHNCDHAEDAGVICLNGADLKLRVVDGVTECSGRLEVKFQGEWGTICDDGWDSDDAAVACKQLGCPTAVTAIGRVNASEGTGHIWLDSVSCHGHESALWQCRHHEWGKHYCNHDEDAGVTCSDGSDLELRLKGGGSHCAGTVEVEIQKLVGKVCDRSWGLKEADVVCRQLGCGSALKTSYQVYSKTKATNTWLFVSSCNGNETSLWDCKNWQWGGLSCDHYDEAKITCSAHRKPRLVGGDIPCSGRVEVQHGDTWGTVCDSDFSLEAASVLCRELQCGTVVSLLGGAHFGEGSGQIWAEEFQCEGHESHLSLCPVAPAPDGTCSHSRDVGVVCSRYTQIRLVNGKTPCEGRVELNILGSWGSLCNSHWDMEDAHVLCQQLKCGVALSIPGGAPFGKGSEQVWRHMFHCTGTEKHMGDCSVTALGASLCSSGQVASVICSGNQSQTLSPCNSSSSDPSSSIISEENGVACIGSGQLRLVDGGGRCAGRVEVYHEGSWGTICDDSWDLNDAHVVCKQLSCGWAINATGSAHFGEGTGPIWLDEINCNGKESHIWQCHSHGWGRHNCRHKEDAGVICSEFMSLRLISENSRETCAGRLEVFYNGAWGSVGRNSMSPATVGVVCRQLGCADRGDISPASSDKTVSRHMWVDNVQCPKGPDTLWQCPSSPWKKRLASPSEETWITCANKIRLQEGNTNCSGRVEIWYGGSWGTVCDDSWDLEDAQVVCRQLGCGSALEAGKEAAFGQGTGPIWLNEVKCKGNETSLWDCPARSWGHSDCGHKEDAAVTCSEIAKSRESLHATGRSSFVALAIFGVILLACLIAFLIWTQKRRQRQRLSVFSGGENSVHQIQYREMNSCLKADETDMLNPSGDHSEVQ
Consider B1, for which the response (relative ratio of CD163/GP2) in test [3] is 1.8.

B2: CD163 receptor, HA-tagged (pCAGGS-CD163-HA), Q2VL90 R561del (protein)
chain: KDKELRLTGGENKCSGRVEVKVQEEWGTVCNNGWDMDVVSVVCRQLGCPTAIKATGWANFSAGSGRIWMDHVSCRGNESALWDCKHDGWGKHNCTHQQDAGVTCSDGSDLEMGLVNGGNRCLGRIEVKFQGRWGTVCDDNFNINHASVVCKQLECGSAVSFSGSANFGEGSGPIWFDDLVCNGNESALWNCKHEGWGKHNCDHAEDAGVICLNGADLKLRVVDGVTECSGRLEVKFQGEWGTICDDGWDSDDAAVACKQLGCPTAVTAIGRVNASEGTGHIWLDSVSCHGHESALWQCRHHEWGKHYCNHDEDAGVTCSDGSDLELRLKGGGSHCAGTVEVEIQKLVGKVCDRSWGLKEADVVCRQLGCGSALKTSYQVYSKTKATNTWLFVSSCNGNETSLWDCKNWQWGGLSCDHYDEAKITCSAHRKPRLVGGDIPCSGRVEVQHGDTWGTVCDSDFSLEAASVLCRELQCGTVVSLLGGAHFGEGSGQIWAEEFQCEGHESHLSLCPVAPPDGTCSHSRDVGVVCSRYTQIRLVNGKTPCEGRVELNILGSWGSLCNSHWDMEDAHVLCQQLKCGVALSIPGGAPFGKGSEQVWRHMFHCTGTEKHMGDCSVTALGASLCSSGQVASVICSGNQSQTLSPCNSSSSDPSSSIISEENGVACIGSGQLRLVDGGGRCAGRVEVYHEGSWGTICDDSWDLNDAHVVCKQLSCGWAINATGSAHFGEGTGPIWLDEINCNGKESHIWQCHSHGWGRHNCRHKEDAGVICSEFMSLRLISENSRETCAGRLEVFYNGAWGSVGRNSMSPATVGVVCRQLGCADRGDISPASSDKTVSRHMWVDNVQCPKGPDTLWQCPSSPWKKRLASPSEETWITCANKIRLQEGNTNCSGRVEIWYGGSWGTVCDDSWDLEDAQVVCRQLGCGSALEAGKEAAFGQGTGPIWLNEVKCKGNETSLWDCPARSWGHSDCGHKEDAAVTCSEIAKSRESLHATGRSSFVALAIFGVILLACLIAFLIWTQKRRQRQRLSVFSGGENSVHQIQYREMNSCLKADETDMLNPSGDHSEVQ
For the molecule B2, the response (relative ratio of CD163/GP2) in test [3] was found to be 1.8.
